This note sets out measurements from PMC3457934.

This experiment addresses in vitro assembled HIV-1 CA-NC complexes (HIV-1). As to the kind of experiment: co-sedimentation; 5 µl in vitro assembled CA-NC particles incubated with 200 µl 293T cell lysate (capsid-binding buffer plus 1X PBS) at room temperature for 1 hour; spun through a 70% sucrose cushion at 100,000×g for 1 hour at 4°C; pellet (BOUND) and INPUT analysed by Western blotting (anti-GFP, anti-HA, anti-p24); fluorescent quantification of three independent experiments. For orientation: Immunoblotting shows a protein as a band on a membrane.

For the substance “GFP-RanBP2-ΔCyp deletion mutant (from UniProt P49792 1-2786) (domain or fragment)”, the ratio bound/input amounted to 0.39.
In the case of “GFP-RanBP2 (full-length Nup358/RanBP2 fused to GFP) (from UniProt P49792 1-3224) (natural protein)”, the ratio bound/input came to 1.
